The nature of series [1]: Photophysical properties of fluorophores and RNA-fluorophore complexes (Squash study). Format: physicochemical. As to the method: All RNAs used for in vitro studies (except the initial hits from SELEX and the DE2-6 mutants) were purified using 8% denaturing PAGE (7M urea) and eluted in 0.3 M NaOAc (pH 5.2) overnight. The RNA was ethanol precipitated and quantified using absorbance in a NanoDrop 2000 spectrometer. All in vitro RNA properties were measured in 40 mM HEPES-KOH (pH 7.4), 100 mM KCl, 0.5 mM MgCl2 buffer unless specified.
Absorption, excitation, and emission spectra were measured using conditions where the RNA is in excess and the fluorophore is limiting to ensure that no free fluorophore contributes to the absorbance or fluorescence signal (FIGS. 7A-7D).
All quantum yields were determined by comparing each RNA-fluorophore complex with Broccli-DFHBI-1T or Corn-DFHO. All measurements for quantum yield were taken in the presence of excess RNA (10 μM final) compared to the fluorophores (0.2 μM final) to avoid interference from unbound fluorophore. The integral of the emission spectra for each Squash-fluorophore complex was compared with the corresponding integrals for Broccoli or Corn to calculate the quantum yield.

The next series has as its system HEK293T cells. Briefly: RNA assemblies of multivalent Corn or Beetroot in cells. The conditions noted are these: circular RNA, means±s.d. Format: cell-based. On the procedure:
FIGS. 33A-33C provide the dissociation constant (Kd) of Beetroot homodimer. […] These RNAs were incubated at 20° C. for 12 hours and then analyzed using non-denaturing gel electrophoresis (FIG. 33A). The fraction of Beetroot monomer (FIG. 33B) and Beetroot dimer (FIG. 33C) were quantified after SYBR Gold staining. […] The RNA band marked with an asterisk (*) reflects an RNA side product from in vitro transcription. The same side product band was also observed in FIGS. 27B-27C. Quantification shown in […] is based on two independent experiments. FIG. 33D are images showing genetic encoding of simple macromolecular RNA assemblies in cells using Corn when circular RNAs containing 3 and 5 copies of Corn were expressed in HEK293T cells. Clusters of these Corn-containing RNAs were observed as large intracellular puncta. Data shown here is a representative image from three independent cell cultures. Scale bar, 20 μm. FIG. 33E is a graph showing the quantification of the fraction of Corn and Beetroot in the cell that accumulates in puncta. As the valency of Corn increases from three to five, the fraction of Corn participating in the RNA assembly increases from 28±12% to 57±14%. Compared to 5× Corn, a fraction of 27±11% of 5× Beetroot are participating in the Beetroot RNA assembly. Values are means±s.d. FIG. 33F is a graph showing quantification of RNA assembly size in cells. Shown are the size distribution of RNA assemblies created using the indicated multivalent Corn or Beetroot RNA. As the valency of Corn increases from three to five, an increase in the median RNA assembly size was noticed from 0.88±0.37 μm to 1.0±0.54 μm. Compared to 5× Corn, 5× Beetroot assembly has a size of 0.68±0.25 μm. Values are means±s.d.
For to live-cell fluorescence imagining experiments, HEK293T cells were seeded into 35-mm imaging dishes precoated with poly-D-lysine (Mattek Corporation, P35GC-1.5-14C) and mouse laminin I (Cultrex, 3401-010-02) with a cell density of 4.5×10^5 cells per dish. On the next day, HEK293T cells were transfected with DNA plasmids as indicated in figures with fluorescence imaging experiments using FuGENE HD. Transfections were performed according FuGENE HD manufacturer's instructions. HEK293T cells were then cultured for two days before imaging.
Prior to imaging experiments, HEK293T cells were incubated with 1 μl of Hoechst 33342 (Thermo Fisher Scientific, H3570) per 2 ml of imaging media (phenol red-free Dulbeco's modified Eagle's medium (Thermo Fisher Scientific 31053-028) supplemented with 10% fetal bovine serum (Corning 35-010-CV), 100 U ml-1 of penicillin and […] of streptomycin, 1× GlutaMAX (Thermo Fisher Scientific, 35050-061) and 1 mM sodium pyruvate (Thermo Fisher Scientific, 11360-070)). For imaging experiments of RNA-fluorophore complex, HEK293T cells were incubated with imaging media supplemented with a final concentration of 10 μM fluorophore (DFHO or DFAME) and 5 mM MgCl2 for one hour prior to imaging.
For all imaging experiments, an epifluorescence inverted microscope (Nikon Eclipse TE2000-E) was used equipped with a CoolSnap HQ2 CCD camera and a 130-W Nikon mercury lamp. The microscope and camera were controlled using the NIS-Elements Advanced Research software (Nikon). Cells were imaged with a 60× oil objective with a numerical aperture of 1.4 (Nikon) at 37° C. A FITC filter cube (with excitation filter 470±20 nm, dichroic mirror 495 nm (long pass) and emission filter 525±25 nm) was used for imaging GFP-N-peptide. A YFP filter cube (with excitation filter 500±12 nm, dichroic mirror 520 nm (long pass) and emission filter 542±13.5 nm) was used for imaging Corn-DFHO complex. A tetramethylrhodamine filter cube (with excitation filter 560±20 nm, dichroic mirror 585 nm (long pass) and emission filter 630±37.5 nm) was used for imaging mCherry-MCP and Beetroot-DFAME complex.

[2] abbreviates: 40 mM HEPES-KOH (pH 7.4), 100 mM KCl, 0.5 mM MgCl2.

Experimental findings from US20250043290A1, “RNA SEQUENCES THAT INDUCE FLUORESCENCE OF SMALL MOLECULE FLUOROPHORES, MOLECULAR COMPLEXES, SENSORS, AND METHODS OF USE THEREOF” (CORNELL UNIVERSITY, priority 2021, published 2025) are described below.

Marks after values point to notes of the source that are not given here.

In series [1] (setting [2]), `CC1=N/C(=C\c2cc(F)c(O)c(F)c2)C(=O)N1CC(F)(F)F` [DFHBI-1T, (Z)-4-(3,5-difluoro-4-hydroxybenzylidene)-2-methyl-1-(2,2,2-trifluoroethyl)-1H-imidazol-5(4H)-one] displayed an Emission maximum of 495 nm and an Excitation maximum of 426 nm. The molecule further returned a Fluorescence quantum yield in series [1] (compared with Broccoli-DFHBI-1T or Corn-DFHO) of 0.00098. For the same molecule, in series [1] (free DFHBI-1T, at 452 nm), the Extinction coefficient is 19,900* M^−1cm^−1. Also, in series [1] (relative to Broccoli), the “Brightness (extinction coefficient × quantum yield)” value was 0.12.

B1: 3× Corn: circular RNA containing 3 copies of Corn, SEQ ID NO: 100 (nucleic acid)
chain: AACCAUGCCGACUGAUGGCAGUACCGUAGGCGAAUUCUUGCCAUGUGUAUGUGGGAGGCCCGGAUAGCUCAGUCGGUAGAGCAGCGGCCGCGCGAUUCGAGGAAGGAGGUCUGAGGAGGUCACUGAAUCGCGCGGCCGCGGGUCCAGGGUUCAAGUCCCUGUUCGGGCCUCCCACAUACUCUGAUGAUCCAAAACUGCCCGAGGAUCAUUCAUGGCAAACUCGACGUUCGUCAGACUCCUCGCGAUGUCUAUGCGGGAGGCCCGGAUAGCUCAGUCGGUAGAGCAGCGGCCGCGCGAUUCGAGGAAGGAGGUCUGAGGAGGUCACUGAAUCGCGCGGCCGCGGGUCCAGGGUUCAAGUCCCUGUUCGGGCCUCCCGCAUAGUCUGAUCAUCCAAAACUGCCCGAGGGGAUGAUUCAUCGCGAAUCGCGACGAUCGUCACUACCGGCGUCUGACGAACGUCGAACUCGCCGUGUGUGUGUAGGAGGCCCGGAUAGCUCAGUCGGUAGAGCAGCGGCCGCGCGAUUCGAGGAAGGAGGUCUGAGGAGGUCACUGAAUCGCGCGGCCGCGGGUCCAGGGUUCAAGUCCCUGUUCGGGCCUCCUACACACUCUGACGAUCCAAAACUGCCCGAGGGGAUCGUUCACGGCGAACUCACGUCGGUGGAGCUAGCGCCUACGGUACUGCCAUCAGUCGGCGUGGACUGUAG
modifications: circular
For the molecule B1, in the series on HEK293T cells, the “Fraction of RNA in the cell that accumulates in puncta” value (“Fraction of RNA” for short) is 28±12% and the RNA assembly size was 0.88±0.37 μm.

B2: 5× Corn: circular RNA containing five Corn monomers, same as 5X Corn-MS2, SEQ ID NO: 101 (nucleic acid)
chain: AACCAUGCCGACUGAUGGCAGUACCGUAGGCGAAUUCUUGCCAUGUGUAUGUGGGAGGCCCGGAUAGCUCAGUCGGUAGAGCAGCGGCCGCGCGAUUCGAGGAAGGAGGUCUGAGGAGGUCACUGAAUCGCGCGGCCGCGGGUCCAGGGUUCAAGUCCCUGUUCGGGCCUCCCACAUACUCUGAUGAUCCAAAACUGCCCGAGGAUCAUUCAUGGCAAACUCGACGUUCGUCAGACUCCUCGCGAUGUCUAUGCGGGAGGCCCGGAUAGCUCAGUCGGUAGAGCAGCGGCCGCGCGAUUCGAGGAAGGAGGUCUGAGGAGGUCACUGAAUCGCGCGGCCGCGGGUCCAGGGUUCAAGUCCCUGUUCGGGCCUCCCGCAUAGUCUGAUCAUCCAAAACUGCCCGAGGGGAUGAUUCAUCGCGAAUCGCGACGAUCGUCACUACCGGUUCACUUUGUAGACCAGGCUGGUGUACAACUUGCGACUUUGCCAUGUGUAUGUGGGAGGCCCGGAUAGCUCAGUCGGUAGAGCAGCGGCCGCGCGAUUCGAGGAAGGAGGUCUGAGGAGGUCACUGAAUCGCGCGGCCGCGGGUCCAGGGUUCAAGUCCCUGUUCGGGCCUCCCACAUACUCUGAUGAUCCACGCGUAACAUGAGGAUCACCCAUGUCGAGGUACCAUCAUUCAUGGCAAAGUCGCAAGUAUCGGUCAACCUAGUGGGCCCAGUGACGAUCGUCGCCCAUCGCCUUGUGUCUGUUGGAGGCCCGGAUAGCUCAGUCGGUAGAGCAGCGGCCGCGCGAUUCGAGGAAGGAGGUCUGAGGAGGUCACUGAAUCGCGCGGCCGCGGGUCCAGGGUUCAAGUCCCUGUUCGGGCCUCCAACAGACUCUGACGAUCCAAAACUGCCCGAGGGGAUCGUUCAAGGCGAGAGCUCGUCUGACGAACGUCGAACUCGCCGUGUGUGUGUAGGAGGCCCGGAUAGCUCAGUCGGUAGAGCAGCGGCCGCGCGAUUCGAGGAAGGAGGUCUGAGGAGGUCACUGAAUCGCGCGGCCGCGGGUCCAGGGUUCAAGUCCCUGUUCGGGCCUCCUACACACUCUGACGAUCCAAAACUGCCCGAGGGGAUCGUUCACGGCGAACUCACGUCGGUGGAGCUAGCGCCUACGGUACUGCCAUCAGUCGGCGUGGACUGUAG
modifications: circular
With B2, in the series on HEK293T cells, the “Fraction of RNA” value worked out at 57±14% and the RNA assembly size amounted to 1.0±0.54 μm.

B3: 5× Beetroot: circular RNA comprising 5× Beetroot fused to boxB, SEQ ID NO: 102 (nucleic acid)
chain: AACCAUGCCGACUGAUGGCAGUACCGUAGGCGAAUUCUUGCCAUGUGUAUGUGGGAGGCCCGGAUAGCUCAGUCGGUAGAGCAGCGGCCGGUUAGGCAGAGGUGGGUGGUGUGGAGGAGUAUCUGUCCGGCCGCGGGUCCAGGGUUCAAGUCCCUGUUCGGGCCUCCCACAUACUCUGAUGAUCCAAAACUGCCCGAGGAUCAUUCAUGGCAAACUCGACGUUCGUCAGACUCCUCGCGAUGUCUAUGCGGGAGGCCCGGAUAGCUCAGUCGGUAGAGCAGCGGCCGGUUAGGCAGAGGUGGGUGGUGUGGAGGAGUAUCUGUCCGGCCGCGGGUCCAGGGUUCAAGUCCCUGUUCGGGCCUCCCGCAUAGUCUGAUCAUCCAAAACUGCCCGAGGGGAUGAUUCAUCGCGAAUCGCGACGAUCGUCACUACCGGUGACUCGCUAUCGGUUAUGGCAUGUACAACUUGCGACUUUGCCAUGUGUAUGUGGGAGGCCCGGAUAGCUCAGUCGGUAGAGCAGCGGCCGGUUAGGCAGAGGUGGGUGGUGUGGAGGAGUAUCUGUCCGGCCGCGGGUCCAGGGUUCAAGUCCCUGUUCGGGCCUCCCACAUACUCUGAUGAUCCACGCGUACAUUGGCCCUGAAAAAGGGCAAGCGAGGUACCAUCAUUCAUGGCAAAGUCGCAAGUAUCGGUCAACCUAGUGGGCCCAGUGACGAUCGUCGCCCAUCGCCUUGUGUCUGUUGGAGGCCCGGAUAGCUCAGUCGGUAGAGCAGCGGCCGGUUAGGCAGAGGUGGGUGGUGUGGAGGAGUAUCUGUCCGGCCGCGGGUCCAGGGUUCAAGUCCCUGUUCGGGCCUCCAACAGACUCUGACGAUCCAAAACUGCCCGAGGGGAUCGUUCAAGGCGAGAGCUCGUCUGACGAACGUCGAACUCGCCGUGUGUGUGUAGGAGGCCCGGAUAGCUCAGUCGGUAGAGCAGCGGCCGGUUAGGCAGAGGUGGGUGGUGUGGAGGAGUAUCUGUCCGGCCGCGGGUCCAGGGUUCAAGUCCCUGUUCGGGCCUCCUACACACUCUGACGAUCCAAAACUGCCCGAGGGGAUCGUUCACGGCGAACUCACGUCGGUGGAGCUAGCGCCUACGGUACUGCCAUCAGUCGGCGUGGACUGUAG
modifications: circular
For the molecule B3, in the series with HEK293T cells, the “Fraction of RNA” value is 27±11% and the RNA assembly size is on record as 0.68±0.25 μm.
